Numbering of substitutions follows the chain as printed. Numbers in names are those of the source.
B1: OsHPPD-02: nucleotide sequence encoding wild-type Oryza sativa HPPD; vector DBN11754 (nucleic acid)
DNA: ATGCCACCCACGCCAACACCAACGGCCACCACTGGTGCCGTCTCGGCCGCGGCAGCGGCCGGTGAGAATGCTGGTTTCAGGCTAGTCGGCCACCGCCGCTTCGTGAGGGCAAATCCAAGATCTGATCGGTTCCAAGCACTTGCTTTCCACCATGTTGAGCTGTGGTGCGCTGACGCCGCTTCAGCTGCCGGGAGGTTTGCTTTTGCTTTAGGGGCGCCGCTCGCCGCAAGGAGTGATCTTTCCACCGGAAATTCTGCTCATGCTTCTCTTCTACTTAGATCAGCAAGTGTTGCATTTCTGTTCACTGCACCTTATGGCGGAGACCATGGTGTCGGGGCCGATGCTGCAACAACAGCTAGCATACCATCATTTTCTCCCGGCGCCGCAAGAAGATTTGCAGCCGATCATGGCCTGGCAGTTCATGCTGTGGCATTGAGGGTCGCCGACGCGGCTGATGCGTTCCGCGCCAGCGTGGCTGCTGGAGCTAGGCCGGCGTTCCAGCCTGCTGACCTTGGGGGTGGATTTGGATTGGCGGAGGTTGAATTATATGGTGATGTTGTGCTCCGTTTTGTTTCCCATCCAGATGGTGCTGATGCTCCATTTCTACCTGGATTTGAAGGGGTGTCAAACCCCGGCGCGGTGGATTATGGACTGCGTCGATTTGATCACGTGGTAGGTAATGTTCCTGAGTTGGCTCCCGTGGCGGCCTACATTTCAGGCTTTACTGGCTTCCATGAATTTGCCGAGTTCACCGCGGAAGATGTGGGAACTGCTGAAAGTGGATTGAACTCTGTTGTCCTGGCGAACAATGCAGAGACTGTATTGCTCCCCTTGAATGAGCCTGTGCACGGCACCAAACGGCGATCTCAAATTCAGACATACCTCGACCACCACGGGGGCCCTGGTGTTCAGCATATTGCTCTAGCCAGCGACGACGTACTGGGAACACTGAGGGAGATGAGAGCCCGTTCCGCCATGGGTGGCTTTGAGTTTCTGGCCCCTCCGCCGCCAAACTACTACGACGGCGTCAGACGGCGGGCGGGTGACGTCTTGAGTGAGGAGCAGATCAATGAATGTCAAGAACTTGGGGTTCTTGTTGATAGAGATGATCAAGGAGTGCTCCTCCAAATATTCACAAAACCTGTTGGCGACCGCCCGACCTTCTTCCTTGAAATGATCCAAAGGATCGGCTGCATGGAGAAGGATGAATCGGGCCAGGAGTACCAGAAGGGTGGGTGTGGTGGCTTTGGGAAGGGCAACTTCAGCGAGCTGTTCAAGTCAATTGAAGAATATGAAAAATCATTGGAGGCAAAGCAAGCTCCGACGGTGCAGGGAAGCTGA
modifications: OsHPPD-02 Nucleotide Sequence
notes: vector DBN11754
B2: OsHPPDm-F372A-F383W-02: nucleotide sequence encoding Oryza sativa HPPD with F372A+F383W; vector DBN11757 (nucleic acid)
DNA: B1 DNA with T1132G, T1133C, T1166G, C1167G
modifications: OsHPPDm-F372A-F383W-02 Nucleotide Sequence
notes: vector DBN11757

What was measured:
Assay type in all cases: in vivo
[1] = system: Arabidopsis thaliana T1 plants; assay: Isoxaflutole tolerance of transgenic Arabidopsis thaliana T1 plants (spray, bleached leaf area grade, damage score); set-up: Scores (pesticide damage): scale not given here; details: spray, Arabidopsis thaliana T1 plants; for Classification and statistics of the grade of pesticide damage: Grade 0 (number of plants) / Classification and statistics of the grade of pesticide damage: Grade 1 (number of plants) / Classification and statistics of the grade of pesticide damage: Grade 2 (number of plants) / Classification and statistics of the grade of pesticide damage: Grade 3 (number of plants): 16 plants
Summary of the method: (§1)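 T1 transformants selected by glufosinate; 18-day-old plants, with empty-vector and wild-type controls, sprayed with topramezone (25–200 g ai/ha), isoxaflutole (35–280 g ai/ha) or mesotrione (52.5–420 g ai/ha), water as 0×. Bleached leaf area fraction scored at 7 DAT as grades 0–3.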

[2] = system: Arabidopsis thaliana T1 plants; assay: Topramezone tolerance of transgenic Arabidopsis thaliana T1 plants (spray, bleached leaf area grade, damage score); details: 7 DAT, Table 4; for Classification and statistics of the grade of pesticide damage: Grade 0 / Classification and statistics of the grade of pesticide damage: Grade 1 / Classification and statistics of the grade of pesticide damage: Grade 2 / Classification and statistics of the grade of pesticide damage: Grade 3: number of plants; for Scores: pesticide damage score 0-100
Summary of the method: as §1

[3] = system: Arabidopsis thaliana T1 plants; assay: Mesotrione tolerance of transgenic Arabidopsis thaliana T1 plants (spray, bleached leaf area grade, damage score); set-up: Scores: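 damage score 0-100 computed as Σ(N×S)/(T×M)×100 over grades 0-3 with higher meaning more damage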; details: Arabidopsis thaliana T1 plants; for Grade 0 (classification and statistics of the grade of pesticide damage; number of plants) / Grade 1 (classification and statistics of the grade of pesticide damage; number of plants) / Grade 2 (classification and statistics of the grade of pesticide damage; number of plants) / Grade 3 (classification and statistics of the grade of pesticide damage; number of plants): 16 plants
Summary of the method: as §1

[4] = isoxaflutole 35 g ai/ha (0.5x field concentration)
[5] = isoxaflutole 70 g ai/ha (1x field concentration)

Row | Molecule | Resistance evaluation [1, 4] | Scores (pesticide damage) [1, 4] | Classification and statistics of the grade of pesticide damage: Grade 0 (number of plants) [1, 4] | Classification and statistics of the grade of pesticide damage: Grade 1 (number of plants) [1, 4] | Classification and statistics of the grade of pesticide damage: Grade 2 (number of plants) [1, 4] | Classification and statistics of the grade of pesticide damage: Grade 3 (number of plants) [1, 4] | Resistance evaluation [1, 5] | Scores (pesticide damage) [1, 5] | Classification and statistics of the grade of pesticide damage: Grade 0 (number of plants) [1, 5] | Classification and statistics of the grade of pesticide damage: Grade 1 (number of plants) [1, 5] | Classification and statistics of the grade of pesticide damage: Grade 2 (number of plants) [1, 5] | Classification and statistics of the grade of pesticide damage: Grade 3 (number of plants) [1, 5] | Classification and statistics of the grade of pesticide damage: Grade 0 ([2]; topramezone 25 g ai/ha (1×)) | Classification and statistics of the grade of pesticide damage: Grade 1 ([2]; topramezone 25 g ai/ha (1×)) | Classification and statistics of the grade of pesticide damage: Grade 2 ([2]; topramezone 25 g ai/ha (1×)) | Classification and statistics of the grade of pesticide damage: Grade 3 ([2]; topramezone 25 g ai/ha (1×)) | Classification and statistics of the grade of pesticide damage: Grade 0 ([2]; topramezone 100 g ai/ha (4×)) | Classification and statistics of the grade of pesticide damage: Grade 1 ([2]; topramezone 100 g ai/ha (4×)) | Classification and statistics of the grade of pesticide damage: Grade 2 ([2]; topramezone 100 g ai/ha (4×)) | Classification and statistics of the grade of pesticide damage: Grade 3 ([2]; topramezone 100 g ai/ha (4×)) | other results
1 | B1 | Non-resistant | 100 | 0 | 0 | 0 | 16 | Non-resistant | 100 | 0 | 0 | 0 | 16 | 0 | 0 | 0 | 16 | 0 | 0 | 0 | 16 | Scores ([2]; topramezone 25 g ai/ha (1×)): 100; Scores ([2]; topramezone 100 g ai/ha (4×)): 100; Resistance evaluation ([2]; topramezone 25 g ai/ha (1×)): non-resistant (non-resistant plants (scores 68-100)); Resistance evaluation ([2]; topramezone 100 g ai/ha (4×)): non-resistant (non-resistant plants (scores 68-100)); Resistance evaluation ([3]; mesotrione 52.5 g ai/ha): Non-resistant; Scores ([3]; mesotrione 52.5 g ai/ha): 100; Grade 0 (classification and statistics of the grade of pesticide damage; number of plants) ([3]; mesotrione 52.5 g ai/ha): 0; Grade 1 (classification and statistics of the grade of pesticide damage; number of plants) ([3]; mesotrione 52.5 g ai/ha): 0; Grade 2 (classification and statistics of the grade of pesticide damage; number of plants) ([3]; mesotrione 52.5 g ai/ha): 0; Grade 3 (classification and statistics of the grade of pesticide damage; number of plants) ([3]; mesotrione 52.5 g ai/ha): 16; Resistance evaluation ([3]; mesotrione 105 g ai/ha): Non-resistant; Scores ([3]; mesotrione 105 g ai/ha): 100; Grade 0 (classification and statistics of the grade of pesticide damage; number of plants) ([3]; mesotrione 105 g ai/ha): 0; Grade 1 (classification and statistics of the grade of pesticide damage; number of plants) ([3]; mesotrione 105 g ai/ha): 0; Grade 2 (classification and statistics of the grade of pesticide damage; number of plants) ([3]; mesotrione 105 g ai/ha): 0; Grade 3 (classification and statistics of the grade of pesticide damage; number of plants) ([3]; mesotrione 105 g ai/ha): 16
2 | B2 | Highly | 10 | 11 | 5 | 0 | 0 | Highly | 15 | 9 | 7 | 0 | 0 | 10 | 6 | 0 | 0 | 2 | 13 | 1 | 0 | Scores ([2]; topramezone 25 g ai/ha (1×)): 13; Scores ([2]; topramezone 100 g ai/ha (4×)): 31; Resistance evaluation ([2]; topramezone 25 g ai/ha (1×)): highly; Resistance evaluation ([2]; topramezone 100 g ai/ha (4×)): moderately; Resistance evaluation ([3]; mesotrione 52.5 g ai/ha): Highly resistant; Scores ([3]; mesotrione 52.5 g ai/ha): 15; Grade 0 (classification and statistics of the grade of pesticide damage; number of plants) ([3]; mesotrione 52.5 g ai/ha): 9; Grade 1 (classification and statistics of the grade of pesticide damage; number of plants) ([3]; mesotrione 52.5 g ai/ha): 7; Grade 2 (classification and statistics of the grade of pesticide damage; number of plants) ([3]; mesotrione 52.5 g ai/ha): 0; Grade 3 (classification and statistics of the grade of pesticide damage; number of plants) ([3]; mesotrione 52.5 g ai/ha): 0; Resistance evaluation ([3]; mesotrione 105 g ai/ha): Poorly resistant; Scores ([3]; mesotrione 105 g ai/ha): 38; Grade 0 (classification and statistics of the grade of pesticide damage; number of plants) ([3]; mesotrione 105 g ai/ha): 0; Grade 1 (classification and statistics of the grade of pesticide damage; number of plants) ([3]; mesotrione 105 g ai/ha): 14; Grade 2 (classification and statistics of the grade of pesticide damage; number of plants) ([3]; mesotrione 105 g ai/ha): 2; Grade 3 (classification and statistics of the grade of pesticide damage; number of plants) ([3]; mesotrione 105 g ai/ha): 0

From US20250043302A1, “MUTATED HYDROXYPHENYLPYRUVATE DIOXYGENASE POLYPEPTIDE, AND CODING GENE AND USE THEREOF” (BEIJING DABEINONG BIOTECHNOLOGY CO., LTD., priority 2021, published 2025)
